Consider seven variants from IntAct's records for PubMed 20925060.

Sequences and labels used below:
B1: Alpha-crystallin (Mycobacterium tuberculosis (strain ATCC 25618 / P9WMK1 (parent)
chain: MATTLPVQRHPRSLFPEFSELFAAFPSFAGLRPTFDTRLMRLEDEMKEGRYEVRAELPGVDPDKDVDIMVRDGQLTIKAERTEQKDFDGRSEFAYGSFVRTVSLPVGADEDDIKATYDKGILTVSVAVSEGKPTEKHIQIRSTN
partner: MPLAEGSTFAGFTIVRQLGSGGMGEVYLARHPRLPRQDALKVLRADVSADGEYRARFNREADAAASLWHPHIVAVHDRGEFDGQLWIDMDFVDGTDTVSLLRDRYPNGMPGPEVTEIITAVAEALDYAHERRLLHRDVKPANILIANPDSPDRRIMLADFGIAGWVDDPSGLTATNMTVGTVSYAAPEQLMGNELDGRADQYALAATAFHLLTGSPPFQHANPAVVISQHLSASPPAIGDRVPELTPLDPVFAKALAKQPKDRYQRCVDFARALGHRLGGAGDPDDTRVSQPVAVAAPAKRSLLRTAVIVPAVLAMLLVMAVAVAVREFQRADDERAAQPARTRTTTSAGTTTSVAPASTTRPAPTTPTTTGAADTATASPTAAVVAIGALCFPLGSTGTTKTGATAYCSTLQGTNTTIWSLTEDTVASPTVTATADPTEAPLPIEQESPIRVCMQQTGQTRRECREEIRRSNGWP
B2: Chaperonin GroEL 2 (Mycobacterium tuberculosis (strain ATCC 25618 / P9WPE7 (parent)
chain: MAKTIAYDEEARRGLERGLNALADAVKVTLGPKGRNVVLEKKWGAPTITNDGVSIAKEIELEDPYEKIGAELVKEVAKKTDDVAGDGTTTATVLAQALVREGLRNVAAGANPLGLKRGIEKAVEKVTETLLKGAKEVETKEQIAATAAISAGDQSIGDLIAEAMDKVGNEGVITVEESNTFGLQLELTEGMRFDKGYISGYFVTDPERQEAVLEDPYILLVSSKVSTVKDLLPLLEKVIGAGKPLLIIAEDVEGEALSTLVVNKIRGTFKSVAVKAPGFGDRRKAMLQDMAILTGGQVISEEVGLTLENADLSLLGKARKVVVTKDETTIVEGAGDTDAIAGRVAQIRQEIENSDSDYDREKLQERLAKLAGGVAVIKAGAATEVELKERKHRIEDAVRNAKAAVEEGIVAGGGVTLLQAAPTLDELKLEGDEATGANIVKVALEAPLKQIAFNSGLEPGVVAEKVRNLPAGHGLNAQTGVYEDLLAAGVADPVKVTRSALQNAASIAGLFLTTEAVVADKPEKEKASVPGGGDMGGMDF
partner: B1 partner

The first assay covers variants of B1. The settings on record: with pknf_myctu pknF.
Regarding S27A, the “effect of a mutation on the interaction” value is reported as “decreasing interaction”. Consider T4A, for which the “effect of a mutation on the interaction” value is given as “decreasing interaction”.

S19A: the “effect of a mutation on the interaction” value is listed as “decreasing interaction”. Still for that read-out and setting: with T134A the entry was “decreasing interaction”.

The variants in another assay derive from B2. To be noted: with pknf_myctu pknF.
In the case of T92A, the “effect of a mutation on the interaction” value is “decreasing interaction”. For the variant T127A, the “effect of a mutation on the interaction” value is on record as “decreasing interaction”. For T90A, the “effect of a mutation on the interaction” value is recorded as “decreasing interaction”.
